Each block holds one binder with its values, some of them ahead of it.
How the values were obtained:
human B7-H4 [1] = biological target: T1, human B7-H4 (human, UniProt Q7Z7D3 25-282); experiment: FACS, SKBR3 cells [A]
T1 construct: whole, on cells; also called VTCN1; SK-BR-3 cell line highly expressing B7-H4
T1 sequence (looked up): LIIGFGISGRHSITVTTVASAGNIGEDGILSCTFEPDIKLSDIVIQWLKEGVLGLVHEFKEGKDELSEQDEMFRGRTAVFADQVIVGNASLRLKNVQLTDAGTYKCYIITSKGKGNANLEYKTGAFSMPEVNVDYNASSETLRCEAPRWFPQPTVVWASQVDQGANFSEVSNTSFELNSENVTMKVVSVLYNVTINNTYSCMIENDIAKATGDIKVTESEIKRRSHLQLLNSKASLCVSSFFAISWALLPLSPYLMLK

human B7-H4 [2] = biological target: T1, human B7-H4; experiment: FACS, SK-BR-3 cells [A]
Protocol: (§1) This example is intended to investigate the in vitro binding activity of anti-human B7-H4 H2L2 monoclonal antibody to human/cynomolgus monkey/mouse B7-H4. Antibody binding experiments at the cellular level were conducted using a CHO-K1 cell strain overexpressing cynomolgus monkey B7-H4 (CHO-K1/cyno B7-H4, prepared in-house by Harbour Biomed), a CHO-K1 cell strain overexpressing mouse B7-H4 (CHO-K1/m B7-H4, prepared in-house by Harbour Biomed) and an SK-BR-3 cell line highly expressing human B7-H4 (ATCC® HTB-30). Briefly, the CHO-K1/cyno B7-H4 cells, CHO-K1/m B7-H4 cells or SK-BR-3 cells were digested and resuspended with PBS containing 2% BSA. The cell density was adjusted to 1×10⁶ cells/mL. […] The cells were incubated at 4° C. for 2 h away from light. Thereafter, the cells in each well were rinsed twice with 100 μL of pre-cooled PBS containing 2% BSA, and centrifuged at 500 g at 4° C. for 5 min, and then the supernatant was discarded. […] The plate was incubated away from light at 4° C. for 1 h. The cells in each well were rinsed twice with 100 μL of pre-cooled PBS containing 2% BSA, and centrifuged at 500 g at 4° C. for 5 min, and then the supernatant was discarded. Finally, the cells in each well were resuspended in 200 μL of pre-cooled PBS containing 2% BSA, and the fluorescence signal values were read using an ACEA Novocyte3000 flow cytometer.

human B7-H4 [3] = biological target: T1, human B7-H4; experiment: FACS, MDA-MB-468 cells [A]
mouse B7-H4 = biological target: T2, mouse B7-H4 (mouse, UniProt Q7TSP5 25-257); experiment: FACS, CHO-K1/m B7H4 cells [C]
T2 construct: whole, on cells; also called CHO-K1/m B7-H4; CHO-K1/mB7-H4
T2 sequence (looked up): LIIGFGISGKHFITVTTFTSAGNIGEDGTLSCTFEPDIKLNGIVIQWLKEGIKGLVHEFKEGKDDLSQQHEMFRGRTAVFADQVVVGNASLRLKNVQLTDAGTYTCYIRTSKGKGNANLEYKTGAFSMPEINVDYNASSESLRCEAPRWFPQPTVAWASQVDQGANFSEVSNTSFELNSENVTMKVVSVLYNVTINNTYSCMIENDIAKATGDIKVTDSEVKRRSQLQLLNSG
Protocol: as §1

cynomolgus monkey B7-H4 = biological target: T3, cynomolgus monkey B7-H4 (cynomolgus monkey, UniProt A0A2K5U6P5 25-282); experiment: FACS, CHO-K1/cyno B7H4 cells [B]
T3 construct: whole, on cells; also called CHO-K1/cyno B7-H4; CHO-K1/cynoB7H4
T3 sequence: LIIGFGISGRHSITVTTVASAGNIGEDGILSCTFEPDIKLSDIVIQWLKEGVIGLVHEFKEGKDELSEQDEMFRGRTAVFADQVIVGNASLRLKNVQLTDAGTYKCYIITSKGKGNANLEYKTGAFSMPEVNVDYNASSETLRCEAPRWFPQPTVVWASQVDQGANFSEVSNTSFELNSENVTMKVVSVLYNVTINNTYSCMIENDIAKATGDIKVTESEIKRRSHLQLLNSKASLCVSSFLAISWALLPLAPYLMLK
Protocol: as §1

human 4-1BB [4] = biological target: T4, human 4-1BB (human, UniProt Q07011 24-255); experiment: FACS, CHO-K1/hu 4-1BB cells [F]
T4 construct: whole, on cells; also called CD137; TNFRSF9
T4 sequence (Q07011 24-255): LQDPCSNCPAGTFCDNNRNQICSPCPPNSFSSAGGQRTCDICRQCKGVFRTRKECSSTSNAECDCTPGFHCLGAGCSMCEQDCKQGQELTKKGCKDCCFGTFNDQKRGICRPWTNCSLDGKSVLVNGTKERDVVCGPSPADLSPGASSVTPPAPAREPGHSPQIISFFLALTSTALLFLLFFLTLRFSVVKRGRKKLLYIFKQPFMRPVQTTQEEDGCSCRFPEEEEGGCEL
Protocol: (§2) This example is intended to investigate the in vitro binding activity of anti-human 4-1BB HCAb and H2L2 monoclonal antibodies to human and cynomolgus monkey 4-1BB. Antibody binding experiments at the cellular level were conducted using a CHO-K1 cell strain overexpressing human 4-1BB (CHO-K1-hu 4-1BB, Genescript) and a CHO-K1 cell strain overexpressing cynomolgus monkey 4-1BB (CHO-K1-cyno 4-1BB, Genescript). Briefly, the CHO-K1-hu 4-1BB and CHO-K1-cyno 4-1BB cells were digested and resuspended in DMEM complete medium, and the cell density was adjusted to 1×10⁶ cells/mL. […] The cells were incubated at 4° C. for 1 h away from light. Thereafter, the cells in each well were rinsed twice with 100 μL of pre-cooled PBS, and centrifuged at 500 g at 4° C. for 5 min, and then the supernatant was discarded. […] The plate was incubated away from light at 4° C. for 30 min. The cells in each well were rinsed twice with 100 μL of pre-cooled PBS, and centrifuged at 500 g at 4° C. for 5 min, and then the supernatant was discarded. Finally, the cells in each well were resuspended in 200 μL of pre-cooled PBS, and the fluorescence signal values were read using a BD FACS CANTOII.

human 4-1BB [5] = biological target: T4, human 4-1BB; experiment: FACS, CHO-K1/hu 4-1BB cells [H]
Protocol: (§3) Antibody binding experiments at the cellular level were conducted using a CHO-K1 cell strain overexpressing human 4-1BB (CHO-K1-hu 4-1BB, Genescript) and a CHO-K1 cell strain overexpressing cynomolgus monkey 4-1BB (CHO-K1-cyno 4-1BB, Genescript). Briefly, the CHO-K1-hu 4-1BB and CHO-K1-cyno 4-1BB cells were digested and resuspended in DMEM complete medium, and the cell density was adjusted to 1×10⁶ cells/mL. […] The cells were incubated at 4° C. for 1 h away from light. Thereafter, the cells in each well were rinsed twice with 100 μL of pre-cooled PBS, and centrifuged at 500 g at 4° C. for 5 min, and then the supernatant was discarded. […] The plate was incubated away from light at 4° C. for 30 min. The cells in each well were rinsed twice with 100 μL of pre-cooled PBS, and centrifuged at 500 g at 4° C. for 5 min, and then the supernatant was discarded. Finally, the cells in each well were resuspended in 200 μL of pre-cooled PBS, and the fluorescence signal values were read using a BD FACS CANTOII.

cynomolgus monkey 4-1BB [6] = biological target: T5, cynomolgus monkey 4-1BB (cynomolgus monkey); experiment: FACS, CHO-K1/cyno 4-1BB cells [F]
T5 construct: whole, on cells; also called CHO-K1-cyno 4-1BB; CHO-K1/cyno4-1BB
Protocol: as §2

cynomolgus monkey 4-1BB [7] = biological target: T5, cynomolgus monkey 4-1BB; experiment: FACS, CHO-K1/cyno 4-1BB cells [G]
Protocol: as §3

human 4-1BB [8] = biological target: T4, human 4-1BB; experiment: FACS, CHO-K1/h4-1BB cells [L]
Protocol: (§4) Antibody binding experiments at the cellular level were conducted using a CHO-K1 cell strain overexpressing human 4-1BB (CHO-K1/hu 4-1BB, Genscript, #M00538) and a CHO-K1 cell strain overexpressing cynomolgus monkey 4-1BB (CHO-K1/cyno 4-1BB, Genscript, #M00569). Briefly, the CHO-K1-hu 4-1BB and CHO-K1/cyno 4-1BB cells were digested, resuspended in F12K complete medium, and washed once with PBS. The cell density was adjusted to 1×10⁶ cells/mL with PBS. […] The cells were incubated at 4° C. for 1 h away from light. Thereafter, the cells in each well were rinsed twice with 100 μL of pre-cooled PBS, and centrifuged at 500 g at 4° C. for 5 min, and then the supernatant was discarded. […] The plate was incubated away from light at 4° C. for 30 min. The cells in each well were rinsed twice with 100 μL of pre-cooled PBS, and centrifuged at 500 g at 4° C. for 5 min, and then the supernatant was discarded. Finally, the cells in each well were resuspended in 200 μL of pre-cooled PBS, and the fluorescence signal values were read using a BD FACS CANTOII or an ACEA NovoCyte flow cytometer.

human 4-1BB [9] = biological target: T4, human 4-1BB; experiment: FACS, CHO-K1/h4-1BB cells [A]
Protocol: (§5) Antibody binding experiments at the cellular level were conducted using a CHO-K1 cell strain overexpressing human 4-1BB (CHO-K1/h4-1BB, Gensript, #M00538), a CHO-K1 cell strain expressing cynomolgus monkey 4-1BB (CHO-K1/cyno4-1BB, Genscript, #M00569) and a CHO-K1 cell strain overexpressing mouse 4-1BB (CHO-K1/m4-1BB, Genscript, #M00568). Briefly, the CHO-K1/h4-1BB cells, CHO-K1/cyno 4-1BB cells and CHO-K1/m 4-1BB cells were digested and resuspended with PBS containing 2% FBS. The cell density was adjusted to 1×10⁶ cells/mL. […] The cells were incubated at 4° C. for 2 h away from light. Thereafter, the cells in each well were rinsed twice with 100 μL of a pre-cooled FACS buffer, PBS containing 2% FBS, and centrifuged at 500 g at 4° C. for 5 min, and then the supernatant was discarded. […] The plate was incubated away from light at 4° C. for 1 h. The cells in each well were rinsed twice with 100 μL of pre-cooled FACS buffer, and centrifuged at 500 g at 4° C. for 5 min, and then the supernatant was discarded. Finally, the cells in each well were resuspended in 200 μL of pre-cooled FACS buffer, and the fluorescence signal values were read using an ACEA Novocyte3000 flow cytometer.

cynomolgus monkey 4-1BB [10] = biological target: T5, cynomolgus monkey 4-1BB; experiment: FACS, CHO-K1/cyno-4-1BB cells [B]
Protocol: as §5

human 4-1BB [11] = biological target: T4, human 4-1BB; experiment: FACS, CHO-K1/hu 4-1BB cells [I]
Protocol: as §2

cynomolgus monkey 4-1BB [12] = biological target: T5, cynomolgus monkey 4-1BB; experiment: FACS, CHO-K1/cyno 4-1BB cells [H]
Protocol: as §3

human 4-1BB [13] = biological target: T4, human 4-1BB; experiment: FACS, CHO-K1/h4-1BB cells [K]
Protocol: as §4

human 4-1BB [14] = biological target: T4, human 4-1BB; experiment: FACS, CHO-K1/hu 4-1BB cells [A]
Protocol: as §2

cynomolgus monkey 4-1BB [15] = biological target: T5, cynomolgus monkey 4-1BB; experiment: FACS, CHO-K1/cyno 4-1BB cells [A]
Protocol: as §2

cynomolgus monkey 4-1BB [16] = biological target: T5, cynomolgus monkey 4-1BB; experiment: FACS, CHO-K1/cyno 4-1BB cells [B]
Protocol: as §2

cynomolgus monkey 4-1BB [17] = biological target: T5, cynomolgus monkey 4-1BB; experiment: FACS, CHO-K1/cyno 4-1BB cells [C]
Protocol: as §2

cynomolgus monkey 4-1BB [18] = biological target: T5, cynomolgus monkey 4-1BB; experiment: FACS, CHO-K1/cyno 4-1BB cells [D]
Protocol: as §2

cynomolgus monkey 4-1BB [19] = biological target: T5, cynomolgus monkey 4-1BB; experiment: FACS, CHO-K1/cyno 4-1BB cells [E]
Protocol: as §2

human 4-1BB [20] = biological target: T4, human 4-1BB; experiment: FACS, CHO-K1/hu 4-1BB cells [G]
Protocol: as §2

human 4-1BB [21] = biological target: T4, human 4-1BB; experiment: FACS on CHO-K1-hu 4-1BB cells

EC50 (human 4-1BB [4]): 0.248 nM | Maximum MFI (human 4-1BB [4]): 1770 MFI | EC50 (human 4-1BB [5]): 0.851 nM | Maximum MFI (human 4-1BB [5]): 102000 MFI | EC50 (cynomolgus monkey 4-1BB [6]): 1.09 nM | Maximum MFI (cynomolgus monkey 4-1BB [6]): 13400 MFI | EC50 (cynomolgus monkey 4-1BB [7]): 0.329 nM
B2: PR001838 (antibody, human IgG1, V domains shown)
VH: EVQLLESGGGLVQPGGSLRLSCAASGFTFSNYAMSWFRQPPETGLKWVSSIDGSGGDTYYADSVKGRFTISRDNSKNTLYLQMNSLRAEDTAVYYCAKEGSHGTDDSHYDVDVWGQGTTVTVSS
notes: anti-4-1BB HCAb, human IgG1 Fc

EC50 (human 4-1BB [13]): 3.76 nM | Maximum MFI (human 4-1BB [13]): 83600 MFI | EC50 (human 4-1BB [14]): 0.198 nM | Maximum MFI (human 4-1BB [14]): 1740 MFI | EC50 (cynomolgus monkey 4-1BB [15]): 0.443 nM | Maximum MFI (cynomolgus monkey 4-1BB [15]): 17400 MFI
B5: PR001760 (antibody, human IgG1, V domains shown)
VH: EVQLVESGGGVVQPGGSLRLSCAASGFTFSNYAMTWVRQAPEKGLEWVSSISGSGVSTYYADSVKGRFTISRDNSKNTLYLQMTRLTAEDTAVYFCAKEGSSETDDHYYNVDVWGQGTTVTVSS
notes: as for B2

EC50 (cynomolgus monkey 4-1BB [15]): 0.485 nM | Maximum MFI (cynomolgus monkey 4-1BB [15]): 11000 MFI | EC50 (cynomolgus monkey 4-1BB [16]): 3.46 nM | Maximum MFI (cynomolgus monkey 4-1BB [16]): 55500 MFI | EC50 (cynomolgus monkey 4-1BB [17]): 3.46 nM | Maximum MFI (cynomolgus monkey 4-1BB [17]): 55500 MFI | EC50 (cynomolgus monkey 4-1BB [18]): 3.46 nM | Maximum MFI (cynomolgus monkey 4-1BB [18]): 55500 MFI | EC50 (cynomolgus monkey 4-1BB [19]): 0.485 nM | Maximum MFI (cynomolgus monkey 4-1BB [19]): 11000 MFI | EC50 (cynomolgus monkey 4-1BB [6]): 0.485 nM | Maximum MFI (cynomolgus monkey 4-1BB [6]): 11000 MFI | EC50 (cynomolgus monkey 4-1BB [12]): 0.929 nM
B6: Utomilumab analog (PR000483) (antibody, human IgG2, lambda, V domains shown)
VH: EVQLVQSGAEVKKPGESLRISCKGSGYSFSTYWISWVRQMPGKGLEWMGKIYPGDSYTNYSPSFQGQVTISADKSISTAYLQWSSLKASDTAMYYCARGYGIFDYWGQGTLVTVSS
VL: SYELTQPPSVSVSPGQTASITCSGDNIGDQYAHWYQQKPGQSPVLVIYQDKNRPSGIPERFSGSNSGNTATLTISGTQAMDEADYYCATYTGFGSLAVFGGGTKLTVLG
notes: anti-4-1BB control antibody; also called Tab

binding result (human 4-1BB [21]): binds
B8: PR007381 (antibody, human IgG1, V domains shown)
VH: EVQLLESGGGLVQPGGSLRLSCAASGFTFSNYAMSWVRQAPGKGLEWVSSIDASGGDTYYADSVKGRFTISRDNSKNTLYLQMNSLRAEDTAVYYCAKEGSHGTDDSHYDVDVWGQGTTVTVSS
notes: anti-4-1BB HCAb, human IgG1 Fc; also called germline variant of PR004469

More lines, now with the values behind:

B1: control antibody 1 (PR000157) (antibody, V domains shown)
VH: EVQLVQSGAEVKKPGASVKVSCKASGYTFTSYWIGWVRQAPGQGLEWIGDIYPGGGYTNYNEKFKGRVTITRDTSTSTAYLELSSLRSEDTAVYYCARLAGSSYRGAMDSWGQGTLVTVSS
VL: DIQMTQSPSSLSASVGDRVTITCKASQGFNKYVAWYQQKPGKAPKLLIYYTSTLQPGVPSRFSGSGSGRDYTLTISSLQPEDFATYYCLQYGDLLYAFGQGTKVEIKR
notes: also called Positive control 1; 1D11.v1.9varC2
EC50 (read off the curve) (human B7-H4 [1]): ~4 nM | EC50 (human B7-H4 [2]): 1.2 nM | Maximum MFI (human B7-H4 [2]): 266000 MFI | EC50 (read off the curve) (human B7-H4 [3]): ~6 nM | EC50 (mouse B7-H4): 1.73 nM | Maximum MFI (mouse B7-H4): 1.75e+06 MFI | EC50 (cynomolgus monkey B7-H4): 2.1 nM | Maximum MFI (cynomolgus monkey B7-H4): 1.99e+06 MFI

B3: PR004469 (antibody, human IgG1, V domains shown)
VH: EVQLLESGGGLVQPGGSLRLSCAASGFTFSNYAMSWFRQPPETGLKWVSSIDASGGDTYYADSVKGRFTISRDNSKNTLYLQMNSLRAEDTAVYYCAKEGSHGTDDSHYDVDVWGQGTTVTVSS
notes: anti-4-1BB HCAb, human IgG1 Fc; also called PTM variant of PR001838 (G53A)
EC50 (human 4-1BB [8]): 17 nM | EC50 (human 4-1BB [9]): 18 nM | EC50 (human 4-1BB [5]): 1.29 nM | Maximum MFI (human 4-1BB [5]): 109000 MFI | EC50 (cynomolgus monkey 4-1BB [7]): 0.568 nM | EC50 (cynomolgus monkey 4-1BB [10]): 25.4 nM

B4: PR000448 (antibody, human IgG4 S228P, kappa, V domains shown)
VH: QVQLQQWGAGLLKPSETLSLTCAVYGGSFSGYYWSWIRQPPGKGLEWIGEIQHSGSTDSNPSLKGRVTFSVDTSKNQFSLKLNSVTAADTAVYYCARLTGPFDYWGQGTLVTVSS
VL: EIVMTQSPATLSVSPGERATLSCRASQSISSILAWYQQKPGQAPRLLIYGASTRATGIPARFSGSGSGTEFTLTISSLQSEDFAVYYCQQYYNWPLTFGGGTKVEIKR
notes: anti-4-1BB H2L2 recombinant fully human IgG antibody, human IgG1 / kappa
EC50 (human 4-1BB [11]): 0.947 nM | EC50 (cynomolgus monkey 4-1BB [12]): 1.06 nM

B7: PR001842 (antibody, human IgG1, V domains shown)
VH: EVQLLESGGGLVQPGGSLRLSCAASGFTFSSYAMSWGRQAPGKGLEWVSAISGSGGSTYYADSVKGRFTISRDNSKNTLYLHMNSLRAEDTAVYYCAKEKVATTGDYYYDMDVWGQGTTVTVSS
notes: as for B2
EC50 (human 4-1BB [20]): 0.537 nM | EC50 (cynomolgus monkey 4-1BB [6]): 2.29 nM | Maximum MFI (cynomolgus monkey 4-1BB [6]): 9660 MFI
